The term Kd denotes the equilibrium constant for the complex coming apart. One may read the koff as the rate constant with which the complex falls apart. One may read the kon as the second-order rate constant of association. By IC50 is commonly meant the concentration at which inhibition is half-maximal.

Numbering of substitutions follows the chain as printed. Numbers in names are those of the source. Like-named read-outs stand apart in the source and are kept apart here.

Data on ten molecules can be found in patent US20200190192A1 (SUTRO BIOPHARMA, published 2020).

For assay [1], the target named is PD-1 (SPR analyte of the PD-1 kinetics) (Homo sapiens (Human), UniProt Q15116 25-167, limits assumed). Nature of the assay: SPR, PD-1 kinetics. For orientation: Surface plasmon resonance follows binding to a sensor surface in real time, without labels.
The target of assay [2] is T1, human PD-1 expressed on CHO cells (human, UniProt Q15116 25-288).
T1 construct: also called hPD-1; CHO-hPD-1
The experiment in a line: hPD-1 binding titration (format not named; taken as cell binding).

Assay [3] addresses T2, cynomolgus Tim-3 expressed on CHO cells (cynomolgus monkey).
T2 construct: also called cTim-3; Cyno Tim-3 (CHO)
T2 chain: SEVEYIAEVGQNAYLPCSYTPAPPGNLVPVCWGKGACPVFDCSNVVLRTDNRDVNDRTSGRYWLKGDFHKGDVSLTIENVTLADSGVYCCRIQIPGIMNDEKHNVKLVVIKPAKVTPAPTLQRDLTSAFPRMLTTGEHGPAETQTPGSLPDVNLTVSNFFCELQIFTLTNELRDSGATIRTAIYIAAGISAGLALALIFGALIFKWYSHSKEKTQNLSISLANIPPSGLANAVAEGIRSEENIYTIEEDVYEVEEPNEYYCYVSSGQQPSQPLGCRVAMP
The experiment in a line: flow cytometry, CHO-cyno Tim-3 cells. (In general: A flow cytometer gives signals particle by particle.)

Assay [4] concerns the target T3, human Tim-3 expressed on the cell surface (human, UniProt Q8TDQ0 22-301).
T3 construct: also called hTim-3; Human Tim-3 (CHO)
The experiment in a line: flow cytometry, CHO-human Tim-3 cells.

Assay [5] addresses T4, human Tim-3 (Biacore analyte; TIM-3-Fc or TIM-3-HIS, not said which) (human, UniProt Q8TDQ0 22-202).
T4 construct: also called TIM-3 antigen; not shown: Fc or HIS tag
Nature of the assay: SPR Biacore, human Tim-3 (Fc or HIS not said).

The target of assay [6] is T5, biotinylated recombinant human PD-1 (AcroBiosystems) (human, UniProt Q15116 25-167, limits assumed, biotinylated (sites not given)).
T5 construct: Bought protein; also called biotinylated PD-1
The experiment in a line: competition, flow cytometry: biotin-PD-1 binding to CHO-human PD-L1 cells.

Assay [7] deals with T3, human Tim-3 expressed on the cell …. Nature of the assay: flow cytometry, CHO-human Tim-3 cells. On the set-up: Bmax: unit not given here.
Assay [8] addresses T1, human PD-1 expressed on CHO cells. The experiment in a line: flow cytometry, CHO-human PD-1 cells. On the set-up: Bmax: unit not given here.

B1: 1353-G10 wt IgG (antibody, V domains shown)
VH: EVQLVQSGAEVKKPGASVKVSCKASGYRFPHYGISWVRQAPGQGLEWMGWISAYNGNTNYAQKLQGRVTMTTDTSTNTAYMELRSLRSDDTAVYYCARDVDYGTGSGYWGQGTLVTVSS
VL: SYELTQPPSVSVSPGQTARITCSGDALPKQYAYWYQQKPGQAPVMVIYKDTERPSGIPERFSGSSSGTKVTLTISGVQAEDEADYYCQSADNSITYRVFGGGTKVTVL
notes: IgG; also called Sample I
In assay [1], B1 had a Kd of 0.96 nM, a koff of 0.00059 s⁻¹ and a kon of 620000 M⁻¹ s⁻¹. In assay [2], this molecule registered a Bmax of 2980 and a Kd of 0.1 nM.

B2: 1353-G10 H1 HC IgG (antibody, V domains shown)
VH: B1 VH with R28T, P30D, H31S
VL: B1 VL
notes: IgG; also called Sample J
In assay [1], B2 came in with an equilibrium dissociation constant (Kd) of 2.3 nM, a koff of 0.0026 s⁻¹ and an on-rate constant (kon) of 1.1e+06 M⁻¹ s⁻¹. Moreover, in assay [2], the Bmax came out at 3410 and binding was characterised by a dissociation constant (Kd) of 0.5 nM.

B3: 1353-G10 H1/vk1-39 IgG (antibody, V domains shown)
VH: B1 VH with R28T, P30D, H31S
VL: DIQLTQSPSSLSASVGDRVTITCSGDALPKQYAYWYQQKPGKAPKLLIYKDTERPSGVPSRFSGSSSGTKVTLTISSLQPEDFATYYCQSADNSITYRVFGGGTKVEIK
notes: IgG; also called Sample L
B3: in assay [2], the Bmax turned out to be 4940 and binding was put at a Kd of 12.9 nM.

B4: SRP1649-D06 (antibody, V domains shown)
VH: EVQLVESGGGLVQPGGSLRLSCAASGFNIRNHAIHWVRQAPGKGLEWVADIAPAGGYTDYADSVKDRFTISADTSKNTAYLQMNSLRAEDTAVYYCARGYVYRMWDSYDYWGQGTLVTVSS
VL: not shown
notes: IgG with trastuzumab LC; HIS- and FLAG-tagged
In turn, B4 gave a Kd in assay [3] of 1 nM. This molecule came in with an equilibrium dissociation constant (Kd) in assay [4] of 0.1 nM. In addition, in assay [5], the Kd is 74.6 nM, the koff came out at 0.0205 s⁻¹ and the association rate constant (kon) came out at 275000 M⁻¹ s⁻¹.

B5: 1353-G10 scFvFc-zwB × 1649-A01 Hc zwA Y56D/TrstmbLC S56D (bispecific antibody)
scFv: not shown
VH: B4 VH with R30S, N31R, H32Y, A33Y, D50G, A52T, A54V, G55R, Y57D, D59E
VL: not shown
notes: Tim-3 heavy chain with zwA CH3 mutations
In the case of B5, the IC50 in assay [6] stood at 82 nM. In assay [7], this molecule yielded a Bmax of 11200 and a dissociation constant Kd of 4.5 nM. For the same molecule, in assay [8], the Bmax was 13300 and the dissociation constant Kd was 2.3 nM.

B6: SRP1649-D11 (antibody, V domains shown)
VH: B4 VH with R30S, N31G, H32Y, A33V, A52I, A54T, G55A, D59E, D66G, Y108F
VL: not shown
notes: as for B4
On to B6, for which binding in assay [3] was characterised by a dissociation constant (Kd) of 2.2 nM. Besides, binding in assay [4] was put at a Kd of 0.1 nM. In assay [5], the equilibrium dissociation constant (Kd) amounted to 10.6 nM, the koff came to 0.00159 s⁻¹ and the association rate constant (kon) was 150000 M⁻¹ s⁻¹.

B7: SRP1649-H02 (antibody, V domains shown)
VH: B4 VH with N31S, H32Y, A52T, Y57D, D59E, D66G, V101I
VL: not shown
notes: as for B4
The molecule B7 showed a dissociation constant (Kd) in assay [3] of 2.2 nM. The affinity in assay [4], expressed as Kd, was 0.2 nM. In assay [5], the Kd was 23.9 nM, the koff was 0.00374 s⁻¹ and the on-rate constant (kon) is 157000 M⁻¹ s⁻¹.

B8: SRP1649-E08 (antibody, V domains shown)
VH: EVQLVESGGSLVQPGGSLRLSCAASGFSISNYVIHWVRQAPGKGLEWVADISPDGGFTDYADSVKDRFTISADTSKNTAYLQMNSLRAEDTAVYYCARGHVYRLWDSFDYWGRGTLVTVSS
VL: not shown
notes: as for B4
The molecule B8 showed a Kd in assay [3] of 12.4 nM. In addition, the Kd in assay [4] was 0.2 nM. In assay [5], this molecule gave a Kd of 13.5 nM, a dissociation rate constant (koff) of 0.00182 s⁻¹ and an on-rate constant (kon) of 135000 M⁻¹ s⁻¹.

B9: SRP1649-E10 (antibody, V domains shown)
VH: B4 VH with R30S, H32N, A33V, A49G, A52M, A54G, Y57S
VL: not shown
notes: as for B4
Molecule B9 yielded a dissociation constant (Kd) in assay [3] of 7.4 nM. Moreover, in assay [4], the dissociation constant Kd stood at 0.2 nM. In assay [5], this molecule showed a dissociation constant (Kd) of 49.7 nM, an off-rate (koff) of 0.014 s⁻¹ and an on-rate constant (kon) of 281000 M⁻¹ s⁻¹.

B10: SRP1649-G08 (antibody, V domains shown)
VH: B4 VH with R30S, H32Y, A33V, D50A, A52T, A54D, Y57I, D59E, D66G, T69A
VL: not shown
notes: as for B4
B10: the Kd in assay [3] turned out to be 9.3 nM; in assay [4], 0.2 nM; in assay [5], 12.8 nM. In addition, the koff in assay [5] amounted to 0.00243 s⁻¹. The same molecule registered a kon in assay [5] of 191000 M⁻¹ s⁻¹.
